In patent US20230272029A1, “CO-AGONISTS AT GLP-1 AND GIP RECEPTORS SUITABLE FOR ORAL DELIVERY” (Novo Nordisk A/S, priority 2020, published 2023):
Starred links: 1 amine or outer side, 2 acyl side, 3 side chain; linkers in the order of their positions; H or OH if unused. Non-standard residues stand in square brackets, D forms with d. Groups on a side chain read outwards from the residue. No end group written: not given here. *: point of attachment. C20 diacid = O=C(O)CCCCCCCCCCCCCCCCCCC(=O)*; C18 diacid = O=C(O)CCCCCCCCCCCCCCCCC(=O)*; γGlu = O=C(O)[C@H](CCC(=O)[*:2])N[*:1]; εLys = N[C@@H](CCCCN[*:1])C(=O)[*:2]; Aib = CC(C)(N)C(=O)O

T1: human GIP receptor (human, UniProt P48546 22-466)
T1 sequence (looked up): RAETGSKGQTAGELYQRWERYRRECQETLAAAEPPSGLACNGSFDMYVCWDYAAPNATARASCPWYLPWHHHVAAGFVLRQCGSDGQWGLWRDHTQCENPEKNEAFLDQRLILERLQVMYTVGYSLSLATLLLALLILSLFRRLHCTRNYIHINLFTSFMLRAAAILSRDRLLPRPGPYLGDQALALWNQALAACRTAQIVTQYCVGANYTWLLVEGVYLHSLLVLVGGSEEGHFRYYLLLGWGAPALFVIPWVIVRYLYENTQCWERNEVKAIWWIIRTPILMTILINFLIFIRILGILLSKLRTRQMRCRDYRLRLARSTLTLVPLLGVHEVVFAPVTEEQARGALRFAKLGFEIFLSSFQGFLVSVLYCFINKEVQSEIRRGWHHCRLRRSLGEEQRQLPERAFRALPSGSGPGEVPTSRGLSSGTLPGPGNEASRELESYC

B1: Compound No. 37 (peptide)
peptide: Y[Aib]EGTFTSDYSIYLEEQAARK([εLys-εLys-γGlu-C18 diacid])FINWLLAGGPSSGAPPPS-OH
modifications: N-terminus assumed
SMILES: CC[C@H](C)[C@H](NC(=O)[C@H](Cc1ccccc1)NC(=O)[C@H](CCCCNC(=O)[C@@H](N)CCCCNC(=O)[C@@H](N)CCCCNC(=O)CC[C@H](NC(=O)CCCCCCCCCCCCCCCCC(=O)O)C(=O)O)NC(=O)[C@H](CCCNC(=N)N)NC(=O)[C@H](C)NC(=O)[C@H](C)NC(=O)[C@H](CCC(N)=O)NC(=O)[C@H](CCC(=O)O)NC(=O)[C@H](CCC(=O)O)NC(=O)[C@H](CC(C)C)NC(=O)[C@H](Cc1ccc(O)cc1)NC(=O)[C@@H](NC(=O)[C@H](CO)NC(=O)[C@H](Cc1ccc(O)cc1)NC(=O)[C@H](CC(=O)O)NC(=O)[C@H](CO)NC(=O)[C@@H](NC(=O)[C@H](Cc1ccccc1)NC(=O)[C@@H](NC(=O)CNC(=O)[C@H](CCC(=O)O)NC(=O)C(C)(C)NC(=O)[C@@H](N)Cc1ccc(O)cc1)[C@@H](C)O)[C@@H](C)O)[C@@H](C)CC)C(=O)N[C@@H](CC(N)=O)C(=O)N[C@@H](Cc1c[nH]c2ccccc12)C(=O)N[C@@H](CC(C)C)C(=O)N[C@@H](CC(C)C)C(=O)N[C@@H](C)C(=O)NCC(=O)NCC(=O)N1CCC[C@H]1C(=O)N[C@@H](CO)C(=O)N[C@@H](CO)C(=O)NCC(=O)N[C@@H](C)C(=O)N1CCC[C@H]1C(=O)N1CCC[C@H]1C(=O)N1CCC[C@H]1C(=O)N[C@@H](CO)C(=O)O
B2: Compound No. 13 (peptide)
peptide: Y[Aib]EGTFTSDYSIYLEK([εLys-εLys-γGlu-C18 diacid])QAAREFIEWLLRGGPESGAPPPS-OH
modifications: N-terminus assumed
SMILES: CC[C@H](C)[C@H](NC(=O)[C@H](Cc1ccccc1)NC(=O)[C@H](CCC(=O)O)NC(=O)[C@H](CCCNC(=N)N)NC(=O)[C@H](C)NC(=O)[C@H](C)NC(=O)[C@H](CCC(N)=O)NC(=O)[C@H](CCCCNC(=O)[C@@H](N)CCCCNC(=O)[C@@H](N)CCCCNC(=O)CC[C@H](NC(=O)CCCCCCCCCCCCCCCCC(=O)O)C(=O)O)NC(=O)[C@H](CCC(=O)O)NC(=O)[C@H](CC(C)C)NC(=O)[C@H](Cc1ccc(O)cc1)NC(=O)[C@@H](NC(=O)[C@H](CO)NC(=O)[C@H](Cc1ccc(O)cc1)NC(=O)[C@H](CC(=O)O)NC(=O)[C@H](CO)NC(=O)[C@@H](NC(=O)[C@H](Cc1ccccc1)NC(=O)[C@@H](NC(=O)CNC(=O)[C@H](CCC(=O)O)NC(=O)C(C)(C)NC(=O)[C@@H](N)Cc1ccc(O)cc1)[C@@H](C)O)[C@@H](C)O)[C@@H](C)CC)C(=O)N[C@@H](CCC(=O)O)C(=O)N[C@@H](Cc1c[nH]c2ccccc12)C(=O)N[C@@H](CC(C)C)C(=O)N[C@@H](CC(C)C)C(=O)N[C@@H](CCCNC(=N)N)C(=O)NCC(=O)NCC(=O)N1CCC[C@H]1C(=O)N[C@@H](CCC(=O)O)C(=O)N[C@@H](CO)C(=O)NCC(=O)N[C@@H](C)C(=O)N1CCC[C@H]1C(=O)N1CCC[C@H]1C(=O)N1CCC[C@H]1C(=O)N[C@@H](CO)C(=O)O
B3: Compound No. 1 (peptide)
peptide: Y[Aib]EGTFTSDYSIYLEK([εLys-εLys-γGlu-C20 diacid])QAAQEFVNWLLAGGPSSGAPPPS-NH2
modifications: N-terminus assumed
SMILES: CC[C@H](C)[C@H](NC(=O)[C@H](CO)NC(=O)[C@H](Cc1ccc(O)cc1)NC(=O)[C@H](CC(=O)O)NC(=O)[C@H](CO)NC(=O)[C@@H](NC(=O)[C@H](Cc1ccccc1)NC(=O)[C@@H](NC(=O)CNC(=O)[C@H](CCC(=O)O)NC(=O)C(C)(C)NC(=O)[C@@H](N)Cc1ccc(O)cc1)[C@@H](C)O)[C@@H](C)O)C(=O)N[C@@H](Cc1ccc(O)cc1)C(=O)N[C@@H](CC(C)C)C(=O)N[C@@H](CCC(=O)O)C(=O)N[C@@H](CCCCNC(=O)[C@@H](N)CCCCNC(=O)[C@@H](N)CCCCNC(=O)CC[C@H](NC(=O)CCCCCCCCCCCCCCCCCCC(=O)O)C(=O)O)C(=O)N[C@@H](CCC(N)=O)C(=O)N[C@@H](C)C(=O)N[C@@H](C)C(=O)N[C@@H](CCC(N)=O)C(=O)N[C@@H](CCC(=O)O)C(=O)N[C@@H](Cc1ccccc1)C(=O)N[C@H](C(=O)N[C@@H](CC(N)=O)C(=O)N[C@@H](Cc1c[nH]c2ccccc12)C(=O)N[C@@H](CC(C)C)C(=O)N[C@@H](CC(C)C)C(=O)N[C@@H](C)C(=O)NCC(=O)NCC(=O)N1CCC[C@H]1C(=O)N[C@@H](CO)C(=O)N[C@@H](CO)C(=O)NCC(=O)N[C@@H](C)C(=O)N1CCC[C@H]1C(=O)N1CCC[C@H]1C(=O)N1CCC[C@H]1C(=O)N[C@@H](CO)C(N)=O)C(C)C

What was measured:
[1] = molecular target: human GLP-1 receptor (human, UniProt P43220 24-463); experiment: cell-based or functional assay
[2] = molecular target: T1, human GIP receptor; experiment: cell-based or functional assay

Row | Binder | hGLP-1R, CRE Luc 0% HSA EC50 (pM) [1] | hGLP-1R, CRE Luc 1% HSA EC50 (pM) [1] | hGIPR, CRE Luc 0% HSA EC50 (pM) [2] | hGIPR, CRE Luc 1% HSA EC50 (pM) [2]
1 | B1 | 2.7 pM | 94.6 pM | 11.2 pM | 298 pM
2 | B2 | 7.4 pM | 204 pM | 13.9 pM | 257 pM
3 | B3 | 7.8 pM | 1660 pM | 2.8 pM | 172 pM
